Reference: US20060099689A1

What was measured:
Experiment in all cases: cell-based or functional assay
[1] = biological target: H-GST-DEVD/X-mLIF with X = D (murine) (UniProt P09056)
[2] = biological target: H-GST-DEVD/X-mLIF with X = E (murine) (UniProt P09056)
[3] = biological target: H-GST-DEVD/X-mLIF with X = proline (P) (murine) (UniProt P09056)

murine Caspase-3 (from UniProt P70677 29-175; P70677 176-277) (enzyme)
inhibition of processing [1]: 25%
inhibition of processing [2]: 25%
inhibition of processing [3]: 75%
